# How the values were obtained:
# Assay in all cases: fluorescence polarisation
# [1] = target: BCOR (aa 1176–1225)-FITC (UniProt Q6W2J9)
# [2] = target: FITC-CBX8 A335V peptide
# [3] = target: MBP-AF9
# Sequence of BCOR (aa 1176–1225)-FITC (Q6W2J9 1176-1225): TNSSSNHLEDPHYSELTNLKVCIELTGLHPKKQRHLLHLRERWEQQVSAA
Kd [1] [nM],Kd [2] [nM],IC50 [3] [nM],Substance
18,12,,MBP-AF9 (domain or fragment)
,,96,unlabeled CBX8 A335V peptide

# — paper PMC7497807
